Reference: patent publication US20050136043A1, “TGFbeta signaling inhibitors” (Ludwig Institute for Cancer Research, priority 2003, published 2005)

Legend:
[1] = system: phosphorylation of endogenous Smad2 by TβR-I in Mv1Lu cells; experiment: TGFβ1-dependent phosphorylation of endogenous Smad2 in Mv1Lu cells (pS2 immunoblot); type: cell-based; details: Mv1Lu cells pretreated with peptide, 15 min TGFβ1, FIG. 6A
p38R = p38R (Homo sapiens, UniProt Q16539); experiment: In vitro kinase assay of kinase expressed in COS-7 cells; type: biochemical; details: 10 μM peptide, FIG. 5
p38R, sequence (Q16539 whole entry): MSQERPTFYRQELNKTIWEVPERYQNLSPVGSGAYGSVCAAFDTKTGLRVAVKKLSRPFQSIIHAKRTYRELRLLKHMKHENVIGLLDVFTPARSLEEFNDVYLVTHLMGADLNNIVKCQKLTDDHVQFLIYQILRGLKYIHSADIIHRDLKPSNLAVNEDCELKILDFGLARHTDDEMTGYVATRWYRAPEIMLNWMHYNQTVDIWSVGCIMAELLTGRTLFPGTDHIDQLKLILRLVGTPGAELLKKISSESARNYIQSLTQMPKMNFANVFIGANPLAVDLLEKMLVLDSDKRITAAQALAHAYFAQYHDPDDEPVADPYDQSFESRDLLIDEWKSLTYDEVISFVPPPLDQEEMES
Procedure: (§1) For in vitro kinase assay of type I and type II TGFβ family receptors, p38α and SAPKα2 kinases, COS-7 cells were transfected with the kinase expression vectors or the control empty pcDNA3 vector using the DEAE-dextran method. Proteins were extracted in a lysis buffer (50 mM Tris-HCl, pH 7.5, 50 mM NaCl, 1% NP-40, 10 μg/mL aprotinin, 0.1 mM PMSF). HA-tagged proteins (ALK1 to ALK7, p38R, SAPKR2) were immunoprecipitated with anti-HA antibody (12CA5; Roche); His6-tagged proteins (type II receptors) were precipitated with Ni-NTA agarose (Qiagen). The precipitates were washed in extraction buffer, with 20 mM imidazole for Ni-NTA agarose-precipitated proteins, and two times with kinase buffer (20 mM HEPES, pH 7.4, 10 mM MgCl2, 2 mM MnCl2, 1 mM DTT). The kinase reaction was initiated by addition of 20 μL of kinase buffer containing 0.5 μCi of [γ-32P]ATP, 5.0 μM ATP, and inhibitory peptides at a final concentration of 10 μM. The reaction was performed at 22° C. for 20 min and terminated by addition of SDS-containing sample buffer and boiling for 5 min. The reaction products were analyzed by SDS-PAGE and exposure in a Fuji X2000 phosphorimager. Equal loading was controlled by immunoblotting aliquots of the samples with a HA probe (Y-11; Santa Cruz) or anti-His antibody (Qiagen).
(§2) To evaluate whether the substrate-mimicking peptides affect kinases of type I and type II reptors of the TGFβ family, we studied the influence of peptides on authophosphorylation of all known mammalian type I receptors [ALK-1, ActR-I (ALK-2), BMPR-IA (ALK-3), ActR-IB (ALK-4), TβR-I (ALK-5), BMPR-IB (ALK-6), and ALK-7], TβRII, ActR-II, BMPR-II, p38R, and SAPKR2 (FIG. 5). The kinases were expressed in COS-7 cells and purified by using specific anti-tag antibodies or Ni-NTA agarose, and kinase activity was tested in the presence of peptides.

SAPKR2 = SAPKR2 (Homo sapiens, UniProt P45984); experiment: as above; type: biochemical; details: 10 μM peptide, FIG. 5
Procedure: as §1, §2

ActR-II = target: T1, ActR-II (Homo sapiens, UniProt P27037); experiment: In vitro kinase assay (autophosphorylation) of receptor expressed in COS-7 cells; type: biochemical; details: 10 μM peptide, FIG. 5
T1 construct: made in house; host or cells: COS-7 cells (transfected, Ni-NTA precipitated)
T1 sequence (P27037 20-513): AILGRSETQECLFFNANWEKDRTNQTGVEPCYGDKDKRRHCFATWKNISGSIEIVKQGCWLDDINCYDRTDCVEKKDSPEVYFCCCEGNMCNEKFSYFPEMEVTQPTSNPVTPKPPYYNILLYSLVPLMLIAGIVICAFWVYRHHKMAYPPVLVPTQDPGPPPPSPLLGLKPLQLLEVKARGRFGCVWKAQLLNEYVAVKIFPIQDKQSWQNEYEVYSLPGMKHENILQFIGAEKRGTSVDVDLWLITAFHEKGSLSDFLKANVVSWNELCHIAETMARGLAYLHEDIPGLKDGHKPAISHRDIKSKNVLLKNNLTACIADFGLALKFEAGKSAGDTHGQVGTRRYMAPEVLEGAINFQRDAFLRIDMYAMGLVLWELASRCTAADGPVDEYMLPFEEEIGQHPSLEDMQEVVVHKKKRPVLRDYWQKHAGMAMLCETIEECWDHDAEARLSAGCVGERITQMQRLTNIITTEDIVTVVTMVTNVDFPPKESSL
Procedure: as §1, §2

ActR-IB (ALK-4) = target: T2, ActR-IB (ALK-4) (Homo sapiens, UniProt P36896); experiment: as above; type: biochemical; details: 10 μM peptide, FIG. 5
T2 construct: made in house; host or cells: COS-7 cells (transfected, immunoprecipitated)
T2 sequence (P36896 24-505): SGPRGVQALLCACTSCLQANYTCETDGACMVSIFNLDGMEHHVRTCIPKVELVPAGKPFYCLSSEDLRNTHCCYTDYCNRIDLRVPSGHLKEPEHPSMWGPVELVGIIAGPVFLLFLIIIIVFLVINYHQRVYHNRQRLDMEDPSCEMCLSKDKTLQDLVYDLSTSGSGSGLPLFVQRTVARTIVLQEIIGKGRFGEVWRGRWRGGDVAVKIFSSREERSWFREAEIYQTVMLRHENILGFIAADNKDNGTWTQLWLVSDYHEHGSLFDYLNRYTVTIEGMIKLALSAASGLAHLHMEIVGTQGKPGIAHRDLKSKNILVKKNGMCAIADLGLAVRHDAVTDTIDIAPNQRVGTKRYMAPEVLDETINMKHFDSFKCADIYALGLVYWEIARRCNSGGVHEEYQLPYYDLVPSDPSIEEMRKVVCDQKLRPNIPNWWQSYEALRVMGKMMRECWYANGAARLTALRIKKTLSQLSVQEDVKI
Procedure: as §1, §2

TβR-I (ALK-5) = target: T3, TβR-I (ALK-5) (Homo sapiens, UniProt P36897); experiment: as above; type: biochemical; details: 10 μM peptide, FIG. 5
T3 construct: made in house; host or cells: COS-7 cells (transfected, immunoprecipitated)
T3 sequence (P36897 34-503): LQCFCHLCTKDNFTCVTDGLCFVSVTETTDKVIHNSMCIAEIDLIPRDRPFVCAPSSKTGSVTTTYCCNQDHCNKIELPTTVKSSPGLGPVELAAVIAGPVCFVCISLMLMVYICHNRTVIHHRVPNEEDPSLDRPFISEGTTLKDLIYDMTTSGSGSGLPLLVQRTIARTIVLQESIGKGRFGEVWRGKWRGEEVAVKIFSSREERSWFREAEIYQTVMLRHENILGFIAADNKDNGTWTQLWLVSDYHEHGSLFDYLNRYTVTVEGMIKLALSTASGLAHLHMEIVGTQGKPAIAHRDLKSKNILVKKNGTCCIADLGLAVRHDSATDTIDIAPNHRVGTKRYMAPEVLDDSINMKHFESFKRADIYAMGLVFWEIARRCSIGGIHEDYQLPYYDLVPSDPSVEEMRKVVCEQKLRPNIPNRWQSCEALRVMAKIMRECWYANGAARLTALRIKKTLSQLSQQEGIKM
Procedure: as §1, §2

ALK-1 = target: T4, ALK-1 (Homo sapiens, UniProt P37023); experiment: as above; type: biochemical; details: 10 μM peptide, FIG. 5
T4 construct: made in house; host or cells: COS-7 cells (transfected, immunoprecipitated)
T4 sequence (P37023 22-503, species assumed): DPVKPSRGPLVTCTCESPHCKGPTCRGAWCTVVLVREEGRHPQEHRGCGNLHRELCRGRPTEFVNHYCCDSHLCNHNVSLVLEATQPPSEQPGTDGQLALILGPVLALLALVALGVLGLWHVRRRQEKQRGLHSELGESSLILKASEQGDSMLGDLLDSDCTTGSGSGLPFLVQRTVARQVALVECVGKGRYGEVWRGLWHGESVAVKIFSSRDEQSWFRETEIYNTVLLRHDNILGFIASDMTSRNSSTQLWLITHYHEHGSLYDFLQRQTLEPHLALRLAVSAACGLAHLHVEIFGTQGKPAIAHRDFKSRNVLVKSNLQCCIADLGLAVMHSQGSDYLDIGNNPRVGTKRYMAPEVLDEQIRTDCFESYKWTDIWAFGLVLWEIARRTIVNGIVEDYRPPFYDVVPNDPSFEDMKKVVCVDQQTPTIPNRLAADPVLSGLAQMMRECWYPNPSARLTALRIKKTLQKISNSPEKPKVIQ
Procedure: as §1, §2

ALK-7 = target: T5, ALK-7 (Homo sapiens, UniProt Q8NER5); experiment: as above; type: biochemical; details: 10 μM peptide, FIG. 5
T5 construct: made in house; host or cells: COS-7 cells (transfected, immunoprecipitated)
T5 sequence (Q8NER5 21-493): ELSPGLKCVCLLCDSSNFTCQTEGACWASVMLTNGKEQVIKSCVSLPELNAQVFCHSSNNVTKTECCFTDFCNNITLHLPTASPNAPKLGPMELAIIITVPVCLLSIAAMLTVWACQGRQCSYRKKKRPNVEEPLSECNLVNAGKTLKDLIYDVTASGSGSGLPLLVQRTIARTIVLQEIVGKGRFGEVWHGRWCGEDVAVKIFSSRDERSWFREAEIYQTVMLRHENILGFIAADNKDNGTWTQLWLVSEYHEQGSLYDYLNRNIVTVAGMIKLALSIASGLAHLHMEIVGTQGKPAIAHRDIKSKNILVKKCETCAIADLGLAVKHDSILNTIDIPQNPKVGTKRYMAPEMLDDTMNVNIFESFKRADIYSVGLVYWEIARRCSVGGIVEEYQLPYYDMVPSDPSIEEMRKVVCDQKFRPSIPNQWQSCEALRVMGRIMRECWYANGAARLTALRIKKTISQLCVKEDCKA
Procedure: as §1, §2

TβRII = target: T6, TβRII (Homo sapiens, UniProt P37173); experiment: as above; type: biochemical; details: 10 μM peptide, FIG. 5
T6 construct: made in house; host or cells: COS-7 cells (transfected, Ni-NTA precipitated)
T6 sequence (P37173 23-567, species assumed): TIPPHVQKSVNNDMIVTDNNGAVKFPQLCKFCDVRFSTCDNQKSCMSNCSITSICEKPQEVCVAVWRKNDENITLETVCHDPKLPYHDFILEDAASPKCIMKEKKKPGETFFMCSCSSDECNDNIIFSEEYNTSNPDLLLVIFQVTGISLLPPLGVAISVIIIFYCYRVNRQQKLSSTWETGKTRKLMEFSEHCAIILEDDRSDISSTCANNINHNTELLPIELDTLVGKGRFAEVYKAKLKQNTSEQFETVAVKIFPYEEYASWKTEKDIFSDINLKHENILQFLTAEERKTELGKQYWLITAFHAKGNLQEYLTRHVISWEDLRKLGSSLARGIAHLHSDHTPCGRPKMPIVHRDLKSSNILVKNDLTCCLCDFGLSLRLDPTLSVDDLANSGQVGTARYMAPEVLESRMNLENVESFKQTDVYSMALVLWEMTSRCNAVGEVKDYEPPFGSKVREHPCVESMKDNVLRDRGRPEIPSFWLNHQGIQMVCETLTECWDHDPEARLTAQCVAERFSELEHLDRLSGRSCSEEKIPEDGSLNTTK
Procedure: as §1, §2

Row | Sequence | Inhibition of TGFβ1-dependent phosphorylation of endogenous Smad2 compared to nontreated cells [1] [%] | Effect on p38R kinase (p38R) | Effect on SAPKR2 kinase (SAPKR2) | Effect on ActR-II kinase (ActR-II) | Effect on ActR-IB (ALK-4) kinase (ActR-IB (ALK-4)) | Effect on TβR-I kinase (TβR-I (ALK-5)) | Effect on ALK-1 kinase (ALK-1) | Effect on ALK-7 kinase (ALK-7) | Effect on TβRII kinase (TβRII) | Effect of peptides on TGFβ1-dependent phosphorylation of endogenous Smad2 [1]
1 | RQIKIWFQNRRMKWKKTQMGSPSVRCSAMA (listed as Homo sapiens) [antp-Sm2A] | 67 | without any effect | without any effect | without any effect | without any effect | inhibited | without any effect | without any effect | without any effect | –
2 | RQIKIWFQNRRMKWKKTQMGSPSVRCSSMS (listed as Homo sapiens) [antp-Sm2S, penetratin fused to the C-terminus of wild-type Smad2] | – | without any effect | without any effect | without any effect | without any effect | inhibited | without any effect | without any effect | without any effect | weaker affect
